Data from article PMC3686096 (Journal of the American Chemical Society, 2013).

Assay: Control: unseeded Aβ1–40 solution checked for fibrils by TEM or AFM
Type: physicochemical
Details: unseeded 50 µM Aβ1–40 solution, 30 min incubation

## Aβ1–40: 40-residue β-amyloid peptide, made by solid-phase synthesis; also literature fibrils of unspecified polymorph
  fibril formation in unseeded solution: no fibrils were observed
